Assay results taken from FireProtDB.
Several values for one entry are separate records, joined by “and”; a condition that tells them apart may be missing. Equal entries are not always repeated.

Settings: whole UniProt chain shown
[1] = Escherichia coli (strain K12), pH 7.8, 23 °C, Urea, Fluorescence, Tris-HCl 10 mM, NaCl 100 mM, reversible: yes
[2] = Geobacillus stearothermophilus, pH 5.4, 25 °C, Thermal, CD, acetate 20 mM, NaCl 100 mM, reversible: yes
[3] = Geobacillus stearothermophilus, pH 5.4, 25 °C, Urea, CD, acetate 20 mM, NaCl 100 mM, reversible: yes
[4] = Geobacillus stearothermophilus, pH 5.4, 25.15 °C, Urea, CD, sodium acetate 10 mM, Nacl 100 mM
[5] = Geobacillus stearothermophilus, pH 5.4, Thermal, CD, acetate 20 mM, NaCl 100 mM, reversible: yes
[6] = Geobacillus stearothermophilus, pH 5.45, 10 °C, GdnHCl, CD, sodium acetate,sodium sulfate
[7] = Geobacillus stearothermophilus, pH 5.45, 25 °C, Urea, CD, Sodium phosphate 20 mM, NaCl 100 mM, reversible: Yes
[8] = Geobacillus stearothermophilus, pH 5.45, 25 °C, Urea, CD, sodium phosphate 10 mM, NaCl 100 mM, reversible: Yes
[9] = Geobacillus stearothermophilus, pH 5.45, 25 °C, Urea, CD, sodium phosphate 20 mM, sodium chloride 100 mM, reversible: yes
[10] = Geobacillus stearothermophilus, pH 5.45, 25 °C, Urea, Fluorescence, Sodium phosphate 20 mM, NaCl 100 mM, reversible: Yes
[11] = Geobacillus stearothermophilus, pH 5.5, 25 °C, Urea, CD, NaAc 20 mM, NaCl 100 mM
[12] = Geobacillus stearothermophilus, pH 5.5, 25 °C, Urea, CD, Sodium phosphate 20 mM, NaCl 100 mM
[13] = Geobacillus stearothermophilus, pH 8, 25 °C, GdnHCl, CD, Tris-HCl 20 mM, sodium chloride 100 mM, reversible: yes
[14] = Geobacillus stearothermophilus, pH 8, 25 °C, Urea, CD, Sodium phosphate 20 mM, NaCl 100 mM, reversible: Yes
[15] = Geobacillus stearothermophilus, pH 8, 25 °C, Urea, CD, sodium phosphate 20 mM, sodium chloride 100 mM, reversible: yes
[16] = Geobacillus stearothermophilus, pH 8, 25 °C, Urea, Fluorescence, Sodium phosphate 20 mM, NaCl 100 mM, reversible: Yes

B1: Outer membrane porin F wild type, P02931 (protein)
chain: MMKRNILAVIVPALLVAGTANAAEIYNKDGNKVDLYGKAVGLHYFSKGNGENSYGGNGDMTYARLGFKGETQINSDLTGYGQWEYNFQGNNSEGADAQTGNKTRLAFAGLKYADVGSFDYGRNYGVVYDALGYTDMLPEFGGDTAYSDDFFVGRVGGVATYRNSNFFGLVDGLNFAVQYLGKNERDTARRSNGDGVGGSISYEYEGFGIVGAYGAADRTNLQEAQPLGNGKKAEQWATGLKYDANNIYLAANYGETRNATPITNKFTNTSGFANKTQDVLLVAQYQFDFGLRPSIAYTKSKAKDVEGIGDVDLVNYFEVGATYYFNKNMSTYVDYIINQIDSDNKLGVGSDDTVAVGIVYQF
Tm (Escherichia coli (strain K12), pH 7.5, Thermal, CD, Tris 50mM): 79.3 °C

B2: Phosphoglycerate kinase wild type, P18912 (protein)
chain: MNKKTIRDVDVRGKRVFCRVDFNVPMEQGAITDDTRIRAALPTIRYLIEHGAKVILASHLGRPKGKVVEELRLDAVAKRLGELLERPVAKTNEAVGDEVKAAVDRLNEGDVLLLENVRFYPGEEKNDPELAKAFAELADLYVNDAFGAAHRAHASTEGIAHYLPAVAGFLMEKELEVLGKALSNPDRPFTAIIGGAKVKDKIGVIDNLLEKVDNLIIGGGLAYTFVKALGHDVGKSLLEEDKIELAKSFMEKAKEKGVRFYMPVDVVVADRFANDANTKVVPIDAIPADWSALDIGPKTRELYRDVIRESKLVVWNGPMGVFEMDAFAHGTKAIAEALAEALDTYSVIGGGDSAAAVEKFGLADKMDHISTGGGASLEFMEGKQLPGVVALEDK
unfolding free energy (Geobacillus stearothermophilus, pH 7.2, 25 °C, GdnHCl, Fluorescence, TEA 50 mM, reversible: no): 13.2 kcal/mol and 9.3 kcal/mol | unfolding free energy (Geobacillus stearothermophilus, pH 7.2, 25 °C, GdnHCl, Fluorescence, tri-ethanolamine 50 mM, reversible: Yes): 8.76 kcal/mol

B3: Co-chaperonin GroES wild type, P0A6F9 (protein)
chain: MNIRPLHDRVIVKRKEVETKSAGGIVLTGSAAAKSTRGEVLAVGNGRILENGEVKPLDVKVGDIVIFNDGYGVKSEKIDNEEVLIMSESDILAIVEA
denaturant m value [1]: 1.83 kcal/mol/M | unfolding free energy [1]: 5.77 kcal/mol

B4: Large ribosomal subunit protein bL9 wild type, P02417 (protein)
chain: MKVIFLKDVKGKGKKGEIKNVADGYANNFLFKQGLAIEATPANLKALEAQKQKEQRQAAEELANAKKLKEQLEKLTVTIPAKAGEGGRLFGSITSKQIAESLQAQHGLKLDKRKIELADAIRALGYTNVPVKLHPEVTATLKVHVTEQK
unfolding free energy (Geobacillus stearothermophilus, pH 5.4, 25 °C, GdnHCl, CD, phosphate 10 mM, NaCl 100 mM, reversible: yes): 2.1 kcal/mol | heat capacity change of unfolding [2]: 0.38 kcal/mol/K | unfolding free energy [2]: 2.18 kcal/mol | denaturant m value [3]: 0.48 kcal/mol/M | denaturant midpoint (higher = more stable) [3]: 3.96 M | unfolding free energy [3]: 1.9 kcal/mol | denaturant m value [4]: 0.66 kcal/mol/M | denaturant midpoint (higher = more stable) [4]: 6.5 M | unfolding free energy [4]: 4.3 kcal/mol | Tm [5]: 65.3 °C | heat capacity change of unfolding [5]: 0.38 kcal/mol/K | unfolding enthalpy (van 't Hoff) [5]: 26.3 kcal/mol | denaturant m value [6]: 1.52 kcal/mol/M | unfolding free energy [6]: 6.02 kcal/mol | unfolding free energy (Geobacillus stearothermophilus, pH 5.45, 25 °C, Thermal, CD, Sodium phosphate 20 mM, NaCl 100 mM, reversible: Yes (>90%)): 3.82 kcal/mol | denaturant m value [7]: 1.32 kcal/mol/M | unfolding free energy [7]: 3.32 kcal/mol | denaturant m value [8]: 0.66 kcal/mol/M | unfolding free energy [8]: 4.17 kcal/mol | denaturant m value [9]: 1.21 kcal/mol/M | unfolding free energy [9]: 3.91 kcal/mol | denaturant m value [10]: 1.24 kcal/mol/M | unfolding free energy [10]: 3.84 kcal/mol | denaturant m value [11]: 0.66 kcal/mol/M | unfolding free energy [11]: 4.3 kcal/mol and 5.85 kcal/mol | denaturant m value [12]: 0.66 kcal/mol/M | unfolding free energy [12]: 4.3 kcal/mol | Tm (Geobacillus stearothermophilus, pH 7.4, Thermal, CD, Tris 10 mM, NaCl 100 mM, reversible: yes(95-100%)): 77 °C | denaturant m value [13]: 2.24 kcal/mol/M | unfolding free energy [13]: 5.9 kcal/mol | denaturant m value [14]: 1.02 kcal/mol/M | unfolding free energy [14]: 6.45 kcal/mol | denaturant m value [15]: 1.02 kcal/mol/M | unfolding free energy [15]: 6.38 kcal/mol | denaturant m value [16]: 1.05 kcal/mol/M | unfolding free energy [16]: 6.49 kcal/mol | unfolding free energy (Geobacillus stearothermophilus, pH 8, Thermal, CD, Sodium phosphate 20 mM, NaCl 100 mM, reversible: Yes (>90%)): 5.77 kcal/mol
